# In PMC11169542, “A probe for NIR-II imaging and multimodal analysis of early Alzheimer’s disease by targeting CTGF” (Nature Communications, 2024):
# Ends that are not written are not given here.
# Tests used:
# [1] = Parallel artificial membrane permeability assay (PAMPA) mimicking BBB; type: in vitro ADME; details: for PAMPA permeability Pe: precoated PAMPA plate, 40 μM in PBS, 5 h, room temperature, ICP-MS
# Protocol: A parallel artificial membrane permeability assay was performed in a 96-well precoated PAMPA plate system (Corning Gentest # 353015). The experimental solutions of DGC were prepared by diluting the stock solutions (10 mM) in PBS at a final concentration of 40 μM and then added to the donor portion of the plate (300 μL/well), while PBS (200 μL/well) was added to the acceptor portion, and the DMSO concentration was lower than 1%. The filter plate was then coupled with the receiver plate, and the plate assembly was incubated at room temperature without agitation for 5 h. Samples of the initial donor solution (C0) were collected and stored at 4 °C. At the end of the incubation, samples were collected from the donor and acceptor plates and then added to aqua regia (HCl: HNO3, volume ratio = 3:1). The C0 samples were treated similarly. The final concentrations of DGC in the donor, acceptor, and T0 wells were quantified by the ICP-MS system (Thermo Elemental X7, USA). The results were used to calculate an effective permeability (Pe, cm/s) value. Permeability of DGC was calculated using the following Eq. (1):1 Pe={-ln[1-CA(t)/Ceq]}/[A×(1/VD+1/VA)×t] Where A = filter area (0.3 cm^2), t = incubation time (seconds), CA(t) = compound concentration in acceptor well at time t, VD = donor well volume (0.3 mL), VA = acceptor well volume (0.2 mL), CD(t) = compound concentration in donor well at time t, and Ceq was calculated using the following Eq. (2):2 Ceq=[CD(t)×VD+CA(t)×VA]/(VD+VA)
# U87MG cells = assay: Cytotoxicity of DGC (CCK-8); type: cell-based, human; parameters: key to Cell viability: viability relative to control cells (control = 1); details: for Cell viability: 24 h, CCK-8, normalized to control
# Protocol: U87MG, SH-SY5Y, and CTX TNA2 cells were seeded into 96-well plates at a density of 5 × 10^3 cells per well and were incubated at 37 °C for 24 h. […] Next, 10 µL of a colorimetric Cell Counting Kit (CCK-8) reagent diluted with 100 µL medium was added to each well, and incubated for 30 min, The absorbance at 450 nm was measured using a microplate reader (Molecular Devices, San Jose, CA, USA). The relative viability was normalized to control cells. The experiment was performed in triplicates.
# CTGF = target: T1, CTGF (Homo sapiens, UniProt P29279); assay: DGC fluorescence labelling of human postmortem brain sections; parameters: The brain tissue samples of autopsy-confirmed AD patients were obtained from the Chinese Brain Bank Center; from tissue; host or cells: postmortem human brain sections (hippocampus, cortex) of AD patients and healthy controls; details: for fluorescence (FL) intensity of DGC: cortex section, ImageJ
# T1 sequence (P29279 27-349): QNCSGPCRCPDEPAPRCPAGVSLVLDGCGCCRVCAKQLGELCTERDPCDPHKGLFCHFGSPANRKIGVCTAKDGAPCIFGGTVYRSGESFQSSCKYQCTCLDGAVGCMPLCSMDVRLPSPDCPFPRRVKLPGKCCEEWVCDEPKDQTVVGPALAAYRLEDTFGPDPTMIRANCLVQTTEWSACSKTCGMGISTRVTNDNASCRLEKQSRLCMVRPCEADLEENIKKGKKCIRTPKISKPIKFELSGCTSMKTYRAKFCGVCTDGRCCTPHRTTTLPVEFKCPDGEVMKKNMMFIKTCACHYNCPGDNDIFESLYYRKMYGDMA
# Protocol: The brain tissue samples of autopsy-confirmed AD patients were obtained from the Chinese Brain Bank Center (CBBC) and Human Brain Bank, Central South University Xiangya School of Medicine. First, the brain sections were air-dried for 15 min at room temperature, followed by immersion in water. 5% H2O2 was applied for 15 min at room temperature. The sections were washed three times with PBS for 5 min each time. Then, tissue repair was performed using trypsin at a temperature of 37 °C for 5 min and washed three times with PBS. We chose 10% sheep serum to block for a duration of 20 min at 37°. Primary antibodies (CTGF antibody and Aβ antibody) were added to the sections overnight at 4 °C. FITC-labeled Goat Anti-Rabbit IgG (H + L) (1: dilution 1:200, Bioss, Cat#bs-0370R-FITC) was applied and incubated at 37 °C for 20 min in darkness. Subsequent washing steps involved rinsing the sections three times with PBS, each time lasting for 5 min while avoiding exposure to light. DAPI staining was performed, taking care to store the samples away from light during the 5-min procedure. Then observed by the CLSM system. Then, we chose the optimal incubation concentration of DGC (200 μM) was used to determine the conditions using DAB Horseradish Peroxidase Color Development Kit. After the brain sections were co-stained by DGC (200 μM) at 4 °C overnight, a DAB chromogenic agent was added to the brain tissue sections to explore whether DGC can catalyze DAB solutions to produce insoluble brown precipitate to attach the brain tissue sections with an optical microscope. Finally, the brain tissue sections were digested with aqua regia to measure the Au content by the ICP-MS system.
substance,measurement,setting,value
"DGC: CTGF-targeting peptide-coated gold nanocluster: one Au26 gold nanocluster coated by eight DAG cyclic peptides, NIR-II and red fluorescence (CDAGRKQKC; also: cyclic peptide, ring not given here, eight peptides on one Au26 nanocluster via Cys Au-S bonds)",BBB permeability class (PAMPA),[1]; 40 μM,high BBB permeability
same,PAMPA permeability Mean Pe,[1]; at several concentrations,higher than 1.5 * 10^-6 cm/s
same,PAMPA permeability Pe,[1]; replicate 1,2.121 ×10⁻⁶ cm/s
same,PAMPA permeability Pe,[1]; replicate 2,2.6 ×10⁻⁶ cm/s
same,PAMPA permeability Pe,[1]; replicate 3,1.724 ×10⁻⁶ cm/s
same,Cell viability,"U87MG cells; 5 μM (Au content), replicate 1",1.188
same,Cell viability,"U87MG cells; 5 μM (Au content), replicate 2",1.205
same,Cell viability,"U87MG cells; 5 μM (Au content), replicate 3",1.21
same,Cell viability,"U87MG cells; 10 μM (Au content), replicate 1",1.185
same,Cell viability,"U87MG cells; 10 μM (Au content), replicate 2",1.16
same,Cell viability,"U87MG cells; 10 μM (Au content), replicate 3",1.163
same,Cell viability,"U87MG cells; 20 μM (Au content), replicate 1",1.112
same,Cell viability,"U87MG cells; 20 μM (Au content), replicate 2",1.134
same,Cell viability,"U87MG cells; 20 μM (Au content), replicate 3",1.136
same,Cell viability,"U87MG cells; 50 μM (Au content), replicate 1",1.152
same,Cell viability,"U87MG cells; 50 μM (Au content), replicate 2",1.117
same,Cell viability,"U87MG cells; 50 μM (Au content), replicate 3",1.103
same,Cell viability,"U87MG cells; 100 μM (Au content), replicate 1",1.07
same,Cell viability,"U87MG cells; 100 μM (Au content), replicate 2",1.085
same,Cell viability,"U87MG cells; 100 μM (Au content), replicate 3",1.085
same,Cell viability,"U87MG cells; 200 μM (Au content), replicate 1",1.067
same,Cell viability,"U87MG cells; 200 μM (Au content), replicate 2",1.053
same,Cell viability,"U87MG cells; 200 μM (Au content), replicate 3",1.071
same,Cell viability,"U87MG cells; 500 μM (Au content), replicate 1",1.0892
same,Cell viability,"U87MG cells; 500 μM (Au content), replicate 2",1.102
same,Cell viability,"U87MG cells; 500 μM (Au content), replicate 3",1.058
same,cytotoxicity,"U87MG cells; DGC incubation 24 h, CCK-8",did not cause any obvious cytotoxicity
same,FL Intensity,"CTGF; AD 1, Cortex section stained with DGC",8.08
same,FL Intensity,"CTGF; AD 1, Hippocampus section stained with DGC",9.357
same,FL Intensity,"CTGF; AD 2, Cortex section stained with DGC",14.1982
same,FL Intensity,"CTGF; AD 2, Hippocampus section stained with DGC",17.484
same,fluorescence (FL) intensity of DGC,"CTGF; Case 1 (healthy control, Thal 0), section 1",0.3032
same,fluorescence (FL) intensity of DGC,"CTGF; Case 1 (healthy control, Thal 0), section 2",0.3289
same,fluorescence (FL) intensity of DGC,"CTGF; Case 1 (healthy control, Thal 0), section 3",0.3505
same,fluorescence (FL) intensity of DGC,"CTGF; Case 2 (healthy control, Thal 0), section 1",0.2446
same,fluorescence (FL) intensity of DGC,"CTGF; Case 2 (healthy control, Thal 0), section 2",0.3615
same,fluorescence (FL) intensity of DGC,"CTGF; Case 2 (healthy control, Thal 0), section 3",0.163
same,fluorescence (FL) intensity of DGC,"CTGF; Case 3 (AD, Thal 1), section 1",0.6904
same,fluorescence (FL) intensity of DGC,"CTGF; Case 3 (AD, Thal 1), section 2",0.8926
same,fluorescence (FL) intensity of DGC,"CTGF; Case 3 (AD, Thal 1), section 3",0.6063
same,fluorescence (FL) intensity of DGC,"CTGF; Case 4 (AD, Thal 1), section 1",0.9911
same,fluorescence (FL) intensity of DGC,"CTGF; Case 4 (AD, Thal 1), section 2",1.101
same,fluorescence (FL) intensity of DGC,"CTGF; Case 4 (AD, Thal 1), section 3",1.556
same,FL Intensity,"CTGF; HC 1, Cortex section stained with DGC",1.2358
same,FL Intensity,"CTGF; HC 1, Hippocampus section stained with DGC",1.043
same,FL Intensity,"CTGF; HC 2, Cortex section stained with DGC",1.632
same,FL Intensity,"CTGF; HC 2, Hippocampus section stained with DGC",6.0176
